Consider 3 molecules from patent US20240376185A1 (SMIVET B V, published 2024).

Experiment [1] concerns the target T1, bovine serum albumin (bovine, UniProt P02769 25-607).
T1 construct: mature; also called bovine Alb
In words: ELISA, coated albumin.

For experiment [2], the target named is T2, chicken ovalbumin (chicken, UniProt P01012 2-386).
T2 construct: mature; also called chicken Alb
T2 sequence (looked up): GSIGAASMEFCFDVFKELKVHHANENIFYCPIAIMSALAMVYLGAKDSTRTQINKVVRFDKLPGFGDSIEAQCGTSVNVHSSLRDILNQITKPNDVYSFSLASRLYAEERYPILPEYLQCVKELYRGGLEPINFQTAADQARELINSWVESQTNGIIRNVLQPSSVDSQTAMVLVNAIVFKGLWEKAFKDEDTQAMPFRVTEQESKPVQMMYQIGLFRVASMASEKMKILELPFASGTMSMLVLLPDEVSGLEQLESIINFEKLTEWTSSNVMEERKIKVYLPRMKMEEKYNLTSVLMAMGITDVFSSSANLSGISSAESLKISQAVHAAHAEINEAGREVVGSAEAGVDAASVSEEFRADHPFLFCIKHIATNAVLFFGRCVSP
In words: ELISA, coated albumin.

Experiment [3] has as its target T3, human serum albumin (human, UniProt P02768 25-609).
T3 construct: mature; also called human Alb
Nature of the experiment: ELISA, coated albumin.

In experiment [4] the target is T4, sheep serum albumin (sheep, UniProt P14639 25-607).
T4 construct: mature; also called sheep Alb
Nature of the experiment: ELISA, coated albumin.

Experiment [5] addresses T5, Tetanus neurotoxin (TeNT), authentic tetanus holotoxin (Clostridium tetani, UniProt P04958 2-1315).
Experiment [6] concerns the target T6, Dog albumin (dog, UniProt P49822 25-608).
T6 construct: also called Canine albumin; Canine Alb
Nature of the experiment: BLI (Octet Red96), biotinylated SDA on SA sensor, albumin as analyte.

Experiment [7] concerns the target Human albumin (human, UniProt P02768 25-609). Nature of the experiment: BLI (Octet Red96), biotinylated albumin on SA sensor, SDA as analyte.
Experiment [8] deals with T7, Horse albumin (horse, UniProt P35747 25-607).
T7 construct: also called Equine albumin; Equine Alb
The description is as above.

Experiment [9] deals with T5, Tetanus neurotoxin (TeNT), authentic …. The source holds these as a separate data set.
Experiment [10] addresses T8, dog serum albumin (dog, UniProt P49822 25-608).
T8 construct: mature; also called dog Alb; Canine albumin
In words: ELISA, coated albumin, E. coli supernatant. Further: test concentration or dose not given here.

Experiment [11] addresses T9, horse serum albumin (horse, UniProt P35747 25-607).
T9 construct: mature; also called horse Alb; Equine albumin
Nature of the experiment: ELISA, coated albumin, E. coli supernatant. Further: test concentration or dose not given here.

The target in experiment [12] is T3, human serum albumin. Nature of the experiment: ELISA, coated albumin, E. coli supernatant. Further: test concentration or dose not given here.
Experiment [13] has as its target T8, dog serum albumin. Nature of the experiment: ELISA, E. coli supernatant.
Experiment [14] deals with T3, human serum albumin. Nature of the experiment: ELISA, E. coli supernatant.

Read-outs that look alike come from different tables or passages of the source.

T5 sequence (P04958 2-457 limits assumed, chain 1 of 2): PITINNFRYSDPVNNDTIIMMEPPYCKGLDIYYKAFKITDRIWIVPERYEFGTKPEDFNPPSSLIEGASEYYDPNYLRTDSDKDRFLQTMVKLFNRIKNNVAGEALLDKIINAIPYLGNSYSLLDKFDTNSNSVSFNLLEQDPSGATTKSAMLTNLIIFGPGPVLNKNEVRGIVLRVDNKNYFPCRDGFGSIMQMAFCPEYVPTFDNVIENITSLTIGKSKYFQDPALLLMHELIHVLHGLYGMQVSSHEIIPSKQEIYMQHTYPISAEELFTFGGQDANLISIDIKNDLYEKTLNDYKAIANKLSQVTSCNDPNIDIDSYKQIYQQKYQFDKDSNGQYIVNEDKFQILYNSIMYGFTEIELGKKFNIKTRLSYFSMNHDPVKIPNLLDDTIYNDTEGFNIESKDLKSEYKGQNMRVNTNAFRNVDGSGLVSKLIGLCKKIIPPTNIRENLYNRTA
T5 sequence (P04958 458-1315 limits assumed, chain 2 of 2): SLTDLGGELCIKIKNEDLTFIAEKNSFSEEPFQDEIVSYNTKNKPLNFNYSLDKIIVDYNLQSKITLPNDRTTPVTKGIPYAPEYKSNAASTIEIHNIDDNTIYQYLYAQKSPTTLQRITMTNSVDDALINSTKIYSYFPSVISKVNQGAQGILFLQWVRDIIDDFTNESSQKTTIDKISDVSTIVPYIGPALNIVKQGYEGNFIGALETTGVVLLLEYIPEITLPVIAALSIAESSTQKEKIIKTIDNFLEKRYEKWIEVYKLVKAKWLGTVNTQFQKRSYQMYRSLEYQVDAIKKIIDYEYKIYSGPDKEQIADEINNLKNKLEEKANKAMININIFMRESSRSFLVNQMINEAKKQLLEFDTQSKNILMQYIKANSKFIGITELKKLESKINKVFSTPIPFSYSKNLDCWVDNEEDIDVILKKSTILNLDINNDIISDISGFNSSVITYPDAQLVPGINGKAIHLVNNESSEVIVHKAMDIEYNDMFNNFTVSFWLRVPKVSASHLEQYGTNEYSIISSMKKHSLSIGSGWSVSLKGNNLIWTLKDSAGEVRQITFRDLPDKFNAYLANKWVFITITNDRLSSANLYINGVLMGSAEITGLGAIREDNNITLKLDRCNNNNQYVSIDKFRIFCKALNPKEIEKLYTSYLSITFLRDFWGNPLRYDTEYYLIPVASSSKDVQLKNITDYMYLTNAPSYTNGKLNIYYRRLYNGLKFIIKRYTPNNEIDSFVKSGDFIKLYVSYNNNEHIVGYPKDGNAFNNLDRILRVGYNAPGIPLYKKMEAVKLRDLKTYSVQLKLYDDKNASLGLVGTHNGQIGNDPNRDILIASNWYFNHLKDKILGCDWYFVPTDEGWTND
T8 sequence (P49822 25-608): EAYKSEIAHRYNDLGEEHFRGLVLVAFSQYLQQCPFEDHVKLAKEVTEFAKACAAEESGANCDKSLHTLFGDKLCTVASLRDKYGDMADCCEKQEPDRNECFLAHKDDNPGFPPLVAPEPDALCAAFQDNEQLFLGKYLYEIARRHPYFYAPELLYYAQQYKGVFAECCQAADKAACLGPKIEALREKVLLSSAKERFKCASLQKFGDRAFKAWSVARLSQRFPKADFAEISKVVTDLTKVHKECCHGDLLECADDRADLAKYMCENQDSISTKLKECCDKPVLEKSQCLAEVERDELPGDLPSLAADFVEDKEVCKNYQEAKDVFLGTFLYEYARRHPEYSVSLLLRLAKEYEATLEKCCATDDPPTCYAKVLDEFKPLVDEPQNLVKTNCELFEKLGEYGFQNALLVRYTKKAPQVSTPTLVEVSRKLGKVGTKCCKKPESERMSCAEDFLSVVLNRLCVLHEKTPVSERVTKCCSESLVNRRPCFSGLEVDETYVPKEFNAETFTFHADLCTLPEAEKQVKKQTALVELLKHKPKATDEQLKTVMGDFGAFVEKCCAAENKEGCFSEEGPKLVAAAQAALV
T6 sequence (P49822 25-608 limits assumed): as the sequence (P49822 25-608) above
T4 sequence (P14639 25-607): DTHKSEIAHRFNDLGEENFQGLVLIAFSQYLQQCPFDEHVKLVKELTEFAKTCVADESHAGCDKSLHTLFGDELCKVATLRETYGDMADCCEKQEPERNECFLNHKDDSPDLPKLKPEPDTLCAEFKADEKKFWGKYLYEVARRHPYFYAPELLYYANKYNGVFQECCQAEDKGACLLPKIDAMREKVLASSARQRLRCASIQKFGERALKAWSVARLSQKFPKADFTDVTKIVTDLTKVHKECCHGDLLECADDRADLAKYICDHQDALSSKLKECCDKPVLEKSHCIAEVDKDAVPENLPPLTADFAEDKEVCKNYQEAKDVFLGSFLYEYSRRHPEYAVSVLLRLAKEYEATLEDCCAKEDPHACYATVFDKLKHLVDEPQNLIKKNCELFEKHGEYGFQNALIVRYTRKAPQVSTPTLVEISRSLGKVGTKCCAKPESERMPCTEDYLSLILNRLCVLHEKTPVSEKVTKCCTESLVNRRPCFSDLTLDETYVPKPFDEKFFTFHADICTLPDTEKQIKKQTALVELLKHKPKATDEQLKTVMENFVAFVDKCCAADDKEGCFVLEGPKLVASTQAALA
T9 sequence (P35747 25-607): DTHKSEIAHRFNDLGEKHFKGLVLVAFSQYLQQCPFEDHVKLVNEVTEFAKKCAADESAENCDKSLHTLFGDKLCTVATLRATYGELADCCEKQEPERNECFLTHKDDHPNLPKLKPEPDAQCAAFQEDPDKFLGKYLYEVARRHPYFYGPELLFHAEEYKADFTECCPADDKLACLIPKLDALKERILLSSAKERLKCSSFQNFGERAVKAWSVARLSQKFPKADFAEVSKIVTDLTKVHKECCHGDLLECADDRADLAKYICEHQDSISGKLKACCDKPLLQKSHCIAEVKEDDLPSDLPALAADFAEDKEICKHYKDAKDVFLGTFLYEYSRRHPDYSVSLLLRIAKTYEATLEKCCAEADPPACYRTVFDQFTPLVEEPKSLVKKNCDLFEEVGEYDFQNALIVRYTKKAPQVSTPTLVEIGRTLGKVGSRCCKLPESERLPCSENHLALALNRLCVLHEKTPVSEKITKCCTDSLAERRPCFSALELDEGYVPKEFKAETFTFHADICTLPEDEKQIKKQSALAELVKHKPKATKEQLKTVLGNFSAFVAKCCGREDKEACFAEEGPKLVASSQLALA
T7 sequence (P35747 25-607 limits assumed): as the sequence (P35747 25-607) above
T1 sequence (P02769 25-607): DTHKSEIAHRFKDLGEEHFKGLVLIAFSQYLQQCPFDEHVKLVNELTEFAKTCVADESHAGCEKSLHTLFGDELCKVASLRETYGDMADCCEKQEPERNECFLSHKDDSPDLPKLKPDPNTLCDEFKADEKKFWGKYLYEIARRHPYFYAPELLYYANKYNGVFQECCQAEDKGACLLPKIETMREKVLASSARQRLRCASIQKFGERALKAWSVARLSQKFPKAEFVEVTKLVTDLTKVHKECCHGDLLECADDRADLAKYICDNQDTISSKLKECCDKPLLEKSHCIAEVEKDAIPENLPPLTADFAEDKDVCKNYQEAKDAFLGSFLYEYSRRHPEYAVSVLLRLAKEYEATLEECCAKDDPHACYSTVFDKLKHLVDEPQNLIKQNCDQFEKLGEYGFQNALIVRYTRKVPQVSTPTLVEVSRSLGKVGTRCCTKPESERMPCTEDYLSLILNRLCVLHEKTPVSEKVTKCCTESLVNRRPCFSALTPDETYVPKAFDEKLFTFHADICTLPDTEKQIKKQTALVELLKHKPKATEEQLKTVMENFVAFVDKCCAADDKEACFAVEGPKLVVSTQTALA

B1: SVA06L (VHH)
VHH: QVQLQESGGRLVQAEDSLRLSCAASGRTFVSYDMGWFRQAPGKEREFVAAINWRGYTTDYVDSVKGRFFISRDIAKSTVYLQMNNLKPEDTAVYYCAARQMSGSSRYSPPGRVGYDFWGQGTQVTVSS
notes: yeast-produced
On to B1, for which the binding result in experiment [1], in experiment [2], in experiment [3] and in experiment [4] was “no binding (tested: 1 µg/ml)” each time.

B2: SVT15-3FW4M-GS3-SVT06-GS2-SVG13M5-H6 (bispecific antibody)
chain: QVQLQESGGGLVQTGGSLRLSCRASGRAFANYHFGWFRQAPGKDREFVASISWKGGSTYYANFALGRFTSSVDRAESSVYLQMSGLTPEDTATYYCAAHDGGDWNYHTGMDYWGQGTQVTVSSGGGGSGGGGSGGGGSQVQLQESGGGSVQAGGSLRLSCTASELSYDDYTIAWFRRAAGEGRVEDGEGVASITKSYDRAYDNKINYGHSVKGRFTISRDNAKNTVYLQMTDLLPSDTAVYYCALDITPPGGVGASLTEGFLFDYWGQGTQVTVSSGGGGSGGGSEVQLVESGGGLVQPGGSLRLSCEASGFTFDDYGMSWVRQAPGKGLEWVSSLTPNGGSTYYADSVKGRFTISRDNAKNTLYLQMNSLKPEDTALYYCAKNSYYGAMDYRGQGTQVTVSSHHHHHH
Regarding B2, the Kd is 0.0229 nM in experiment [5] and less than 0.00041 nM in [9]. In addition, the koff was 2.73e-05 s⁻¹ in experiment [5] and less than 1.99e-07 s⁻¹ in [9]. In addition, the figures for the kon in [5] and in experiment [9] were 1.19e+06 M⁻¹ s⁻¹ and 484000 M⁻¹ s⁻¹, respectively. Also, the binding result in [6] is on record as “no binding (tested: 16-500 nM)”; in experiment [7], “no binding (tested: 100 nM)”; in experiment [8] it was “no binding (tested: 100 nM)”.

B3: SVA07 (VHH, not shown: large carriers)
VHH: QVQLQQSGGGLVQAGDSLRLSCAASGRAFNYYTMGWFRQAPGKEREFVAKIYWDGGSTIYADSVKGRFTISIDNAKNTVYLQMNSLKPEDTAVYYCAADPSFYPFRPKYWGQGTQVTVSS
In the case of B3, the “absorbance at 450 nm” value in experiment [10] was 0.059 A450; in experiment [11], 1.46 A450; in experiment [12], 0.062 A450. Further, the binding result in [13] and in [14] was “no binding” each time.
